Source: article PMC8864064, “Molecular Chaperone BRICHOS Inhibits CADASIL-Mutated NOTCH3 Aggregation In Vitro” (Frontiers in Molecular Biosciences, 2022)

B1: NOTCH3 EGF1–5 R133C (CADASIL-mutated truncated human Notch3 extracellular domain, amino acids 1–234) (domain or fragment)
chain: not shown
notes: signal peptide in the construct; human NOTCH3 extracellular domain, first five EGF-like repeats, amino acids 1–234, with the CADASIL mutation R133C (in EGF3); codon-optimized construct derived from Duering et al., 2011; R133C is a common CADASIL mutation found in patients; also called N3 EGF1–5 R133C; R133C mutant

Assays:
[1] = biological target: B1; assay: cell-based or functional assay
[2] = biological target: the molecule itself; assay: native gel or EMSA; N3 EGF1–5 proteins at 30 µM in 1 × PBS, 37°C for 80 h with and without Bri2 BRICHOS at 1:1 and 1:2 molar; native loading buffer free of DTT and SDS; 6% native PAGE

final aggregation intensity of R133C by turbidity at 360 nm, 37°C, 10 µM, BRICHOS at 1:1 molar ratio [1] [% reduction] | Binder | binding result [2]
≤ 50 | Recombinant human Bri2 BRICHOS domain (domain or fragment, UniProt Q9Y287 137-231, looked up) FADSDPANIVHDFNKKLTAYLDLNLDKCYVIPLNTSIVMPPRNLLELLINIKAGTYLPQSYLIHEHMVITDRIENIDHLGFFIYRLCHDKETYKL | –
– | NOTCH3 EGF1–5 wildtype (truncated human Notch3 extracellular domain, first five EGF-like repeats, amino acids 1–234) (domain or fragment, signal peptide in the construct; human NOTCH3 extracellular domain, first five EGF-like repeats, amino acids 1–234; codon-optimized construct derived from Duering et al., 2011; also called N3 EGF1–5 WT; WT N3 EGF1–5) not shown | binds
– | B1 | binds
